Assay results taken from PMC7102993.

How the values were obtained:
[1] = target: NrS-1 polymerase C-terminal region (residues 301-718) (phage NrS-1); experiment: crystal structure; A-form NrS-1 CTR crystals, space group P212121, grown at 16°C in 2.8 M sodium acetate trihydrate pH 7.0; six monomers per asymmetric unit
[2] = target: NrS-1 polymerase C-terminal region (residues 301-718) (phage NrS-1); experiment: crystal structure; B-form NrS-1 CTR crystals, space group P213, grown at 16°C in 1.6 M NaH2PO4/0.4 M K2HPO4, 0.1 M phosphate-citrate pH 4.2; two monomers per asymmetric unit, hexamer by symmetry operation; 2.4 Å
[3] = target: full-length NrS-1 polymerase (wild type) (phage NrS-1); experiment: negative-stain electron microscopy; protein from the first peak of the size-exclusion column, diluted to 40 μg/ml in low-salt buffer, stained with 0.75% uranyl formate; 2D class averages and 3D map (RELION)
[4] = target: full-length NrS-1 polymerase (wild type) (phage NrS-1); experiment: SEC; Superose 6 Increase 10/300 GL; 20 mM Tris pH 8.0, 2 mM DTT with 500 mM NaCl (high salt) or 200 mM NaCl (low salt); monomer at 15.83 ml, hexamer at 13.5 ml
[5] = target: full-length NrS-1 polymerase K525A mutant (phage NrS-1); experiment: as above

In the case of “NrS-1 polymerase C-terminal region (residues 301-718) (domain or fragment)”, the stoichiometry N [1] is reported as 6 and the stoichiometry N [2] is reported as 6.

Work on “full-length NrS-1 polymerase (wild type) (enzyme)” yielded a stoichiometry N [3] of 6 and a stoichiometry N [4] of 6.

For “full-length NrS-1 polymerase K525A mutant (enzyme)”, the stoichiometry N [5] was 6.
